Source: the DeepSol protein solubility set

Test: soluble on expression in E. coli; label from the status in PepcDB or PDB records

**Q.** Which “soluble on expression in E. coli” value does the source give for “VSAPTKPHSPTFKPEPHSAANEPKHPAARPKHVALQQLTGAQAVIRSLEELGVDVIFGIPGGAVLPVYDPLFDSKKLRHVLVRHEQGAGHAASGYAHVTGRVGVCMATSGPGATNLVTPLADAQMDSIPVVAITGQVGRGLIGTDAFQEADISGITMPITKHNFLVRSGDDIPRVLAEAFHIAASGRPGAVLVDIPKDVLQGQCTFSWPPRMELPGYKPNTKPHSRQVREAAKLIAAARKPVLYVGGGVIRGEATEQLRELAELTGIPVVTTLMARGAFPDSHRQNLGMPGMHGTVAAVAALQRSDLLIALGTRFDDRVTGKLDSFAPEAKVIHADIDPAEIGKNRHADVPIVGDVKAVITELIAMLRHHHIPGTIEMADWWAYLNGVRKTYPLSYGPQSDGSLSPEYVIEKLGEIAGPDAVFVAGVGQHQMWAAQFIRYEKPRSWLNSGGLGTMGFAIPAAMGAKIALPGTEVWAIDGDGCFQMTNQELATCAVEGIPVKVALINNGNLGMVRQWQSLFYAERYSQTDLATHSHRIPDFVKLAEALGCVGLRCEREEDVVDVINQARAINDCPVVIDFIVGADAQVWPMVAAGTSNDEIQAARGIRPLFDDITEGHA” here?
**A.** Its value is “not soluble”.

**Q.** For “MGSDKIHHHHHHMRFGWLEQPFTTLEQLDSLFEIHSPRKFTFADSFYAHENGRHFIFFEEVDDQHPVGFLSVLEVFKDGTYTPPETILKLDYHLSYPCVFKIDSTWYMIPESSANKTIELWKCTDFPMKWEKHSNLMENIEAVDSTPFYHEGLWYLFTSTRRDCKKFGDRLDLFFTEDILNPNWQEHPMNPACRGSQQFRMAGKPFIYKGQLVRPSQDSLKRYGGNIELKAITQLSPAAYEEKLLEVVLPDWNQADDGCHTINVEDNFVVLDAIRLTPKNN”, which “soluble on expression in E. coli” value is on record?
**A.** Its value is “not soluble”.

**Q.** With “ATDTGGYAATAGGNVTGAVSKTATSMQDIVNIIDAARLDANGKKVKGGAYPLVITYTGNEDSLINAAAANICGQWSKDPRGVEIKEFTKGITIIGANGSSANFGIWIKKSSDVVVQNMRIGYLPGGAKDGDMIRVDDSPNVWVDHNELFAANHECDGTPDNDTTFESAVDIKGASNTVTVSYNYIHGVKKVGLDGSSSSDTGRNITYHHNYYNDVNAKLPLQRGGLVHAYNNLYTNITGSGLNVRQNGQALIENNWFEKAINPVTSRYDGKNFGTWVLKGNNITKPADFSTYSITWTADTKPYVNADSWTSTGTFPTVAYNYSPVSAQCVKDKLPGYAGVGKNLATLTSTACK” as the sequence, how does the “soluble on expression in E. coli” value read?
**A.** The value was “soluble”.

**Q.** Which “soluble on expression in E. coli” value does the source give for “MSLSVNSRILWVDLENSPHVPFFKPIIEELEKHGYRVVITARDCFQVCGLADLYGLPYTRIGRHYGKHKALKVVGAVIRALQMRNTLARPLPSLAIAHGSRSQLLAAKILHIPALQLADYEFSNKMPSFLSSDWIMVPETIPAGLHWRNTSRISTYPGIKEDVYVPTFKPQTGILSELGILEKEIVVTIRPPASEAHYHNPKSDDLFYATVNWLSGIDNLRMVVLPRNSSQAAHIGKTWPALIGEAKMVIPDRVLDGLNLIWHSDLVISGGGTMNREAAALGVPVYSIFKGEIGAVDKYLASTGRLTLLETADDITNKVLIQKWERPSSPDHNPRPALKVIVDKILELVEGHHHHHH” here?
**A.** The value was “not soluble”.

**Q.** Which “soluble on expression in E. coli” value does the source give for “MAHHHHHHMQETQELRCATTQMAPAVIFPLPPPLRGSYIDRKPTAASFNEHHATASFRHHMIASADVSHRPRHFYFASGTRNDTGTRSVKEGERKQLKQQTNVEVDSVAYGDQLDELSARWAAKFYGQVTFGPRNYPYPSSRWLARRFQMKKHRIIKRFRFRRYKLAAVANLPFAKMIRVGMLPELKSSKTKRGDVVDPTLSGQLVSAVKNTGEKRKGQRTRPKSKYQV” here?
**A.** The value was “soluble”.

**Q.** With “MNMTDDLGGNILLLSGHPGSGKSTIAEALANLPGVPKVHFHSDDLWGYIKHGRIDPWLPQSHQQNRMIMQIAADVAGRYAKEGYFVILDGVVRPDWLPAFTALARPLHYIVLRTTAAEAIERCLDRGGDSLSDPLVVADLHSQFADLGAFEHHVLPVSGKDTDQALQSAINALQSGRFRIDASLEHHHHHH” as the sequence, how does the “soluble on expression in E. coli” value read?
**A.** The value was “soluble”.

**Q.** Which “soluble on expression in E. coli” value does the source give for “MSLKILYISQEIFPYLPETDISVVSRKLPQTIQERGNEVRIFMPRYGIINERRNQLHEVIRLSGINMIINDNDHPLIIKVASIQSARMQVYFIDNDDFFKRKTMYDIKPKQENDNDERAIFFVRGALEAIKKLRWIPDVIHCHGWFTALAALYLKKMYADDPCLQKAKVVYSVYDDAGQGVIPETLFGKLGFDKITPDDLSVMEQSSDYLALNRLAIRYADGVIQGSETIAPELTDYISSLEGKAFLPYQGKEDYEEAFDNFYSDLLTANEGHHHHHH” here?
**A.** Its value is “soluble”.

**Q.** With “LKSSRFHEKILCDIGGVPMFVATARRVSSVDEVCIALDDEKVLSIAKEYGLNAVLTSKDHESGTDRINEACKKLALKDDEIIINVQADEPFIECENLLKFKEFASFCLDKKAFMASCYKKITQEEAMDPNLVKVLCDKEGYALYFSRAKIPYERENYEESFKGHLGIYAYSVKALREFCSLSSSALERAEKLEQLRAIENGKKIKMLEISTTSMGIDTKEDYERALKIYLEK” as the sequence, how does the “soluble on expression in E. coli” value read?
**A.** The value was “not soluble”.

**Q.** For “MGSDKIHHHHHHMINRSLGISCGLVIVLAGCSETTTKDSSKTVPKTSETVKSDIIFKNLRTPWNIEKNQEVFYITEREGTIVKGTEGNYSRTDLELTEPVVAQGEGGLLGMALDPDFSKNRTAYVYHTYEKDGALWNRIIAIKEEKESWKEQRVLLDKIPGATIHNGGRIEIGPDGLLYVTAGDAAVPENAQKLSSLSGKILRMKLDGKPADGNVKEYIYSYGHRNPQGLVFVDQTLYATEHGQNGHDEINRIEQKNYGWPLIEGTEKQQGLVTPWYEVGEKSIAPSGVAEQNGKLYFGTLVGQSLRSIETESSKVEQIVTDRGRIRDVMTDGKELYYVTNNTDGRGNSSDEDDVLVRLKP”, which “soluble on expression in E. coli” value is on record?
**A.** Its value is “not soluble”.

**Q.** With “EVQLVESGGGLVQPGGSLRLSCAASGFTFTSTGISWVRQAPGKGLEWVGRIYPTNGSTNYADSVKGRFTISADTSKNTAYLQMNSLRAEDTAVYYCARTYGIYDLYVDYTEYVMDYWGQGTLVTVSSASTKGPSVFPLAPSSKSTSGGTAALGCLVKDYFPEPVTVSWNSGALTSGVHTFPAVLQSSGLYSLSSVVTVPSSSLGTQTYICNVNHKPSNTKVDKKVEPKSCDKTHT” as the sequence, how does the “soluble on expression in E. coli” value read?
**A.** The value was “soluble”.

**Q.** Which “soluble on expression in E. coli” value does the source give for “MGSDKIHHHHHHMKKTYLFSPGPVMVTDKVRNSLLHYDICHRGNEFMNLFKDTQQKINKLYNATSNYYSLIVSGSGTSVNECVLSSIFDKEDAVLLVSNGVFGERLEEILSTYNVKTYKPNFEWAEYPDLDILEKYIIENSDIKVIAMVFHETSSGMINPVPELGKLAKKYNKIFFVDAISASAGEYIDVEEFNIDIITGVGGKALGAFPGSAYLCAKESILQNIKENQCKNVYLNLYKHYKVAKSSSQTPNTPNVTLIFALNEALTEFLEDDSKIERYKECSAILRNGMEELGLTFLLPDKYMSNTVTSVFLPKEINVNEFILGLERESGYVVYPGKGKFLDANIFQVANMGEIYPEDCYKFLDILKSKLEIKKVI” here?
**A.** Its value is “not soluble”.

**Q.** With “MSLKVHGVILMNIEEWEEYRYVEAGIKESITLIEDPGLKKMVEHVCHSGGKRIRPIILLLVSEICSGSYSRSLNAALAVEMMHSASLIHDDLLDQGLVRRNLPSAPEKFGPSGALLCGDYLIAKSIAFISPYGEKVIQDFGKAGMDMAEGEVLDLKLEDESFGENDYFKCIYKKTASLFAISASIGAYTGGAEEELAERFSHFGNALGTAYQIVDDILEFLEVVEGKESKFTSETLPHIYMKSTSKEEALKKSIDCVKLHVAAAKETLETFRECPARDKLFQITDYITVDMLENLEGHHHHHH” as the sequence, how does the “soluble on expression in E. coli” value read?
**A.** The value was “soluble”.

**Q.** With “MAEYSMKELIEWNEKIEEIARAEGLDYYEQEFEICSYEDMIAYETYVGMPSHYPHWSYGKNYERIKTLYKYNLTGLPYEMVINSDPCIAYLMKDNTLLLQILTMAHVYGHNDFFKNNRLFKLGTRAKDTVDMFKNHADRIREYIQDPGIGYAKVEKILNAAHAIRYQISRNIGVRVLSQEEKKKELLERYNKPKSEYPLLEPKSKEEEAPPDFKKIPVEPEEDMLLFFMNYSKLTDWERDILSIVREETLYFLPQIETKIMNEGWASFWHYNILNKLNLEQGLHFEFLKRHNQVIRPVLGQLNPYYIGFRIFEDLKKRYEDDPKKIFEVREVERDQSFIRRYLTRELCEEMNLFEYAKIGNSYIVTEVSDEEGWKKIRDTIANNVGLAGIPVIKVAEWVQKDNTLVLEHEYDGREIELSYAYETMKHIVDLWDGKVMLGTVIDNKKKIIVCNEQKKVTLTDG” as the sequence, how does the “soluble on expression in E. coli” value read?
**A.** Its value is “not soluble”.
